Data reported in PMC10397247.
Blank lines part the entries; values can stand above or below the binder they belong to.

Assays:
Assay in all cases: two-hybrid library CCmax;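 note: natural log of median RNA to DNA barcode read ratio; higher means stronger binding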
4H429-AA = target: T1, 4H429-AA; conditions: mean of both orientations
T1 chain: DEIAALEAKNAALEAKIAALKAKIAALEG

4H3655-AA = target: T2, 4H3655-AA; conditions: mean of both orientations
T2 chain: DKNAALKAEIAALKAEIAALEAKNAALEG

4H3627-AA = target: T3, 4H3627-AA; conditions: mean of both orientations
T3 chain: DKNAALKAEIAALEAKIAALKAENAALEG

4H906-AA = target: T4, 4H906-AA; conditions: mean of both orientations
T4 chain: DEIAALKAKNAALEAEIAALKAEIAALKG

4H717-AA = target: T5, 4H717-AA; conditions: mean of both orientations
T5 chain: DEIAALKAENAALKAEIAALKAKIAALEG

4H48-AA = target: T6, 4H48-AA; conditions: mean of both orientations
T6 chain: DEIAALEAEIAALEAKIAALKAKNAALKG

4H342-AA = target: T7, 4H342-AA; conditions: mean of both orientations
T7 chain: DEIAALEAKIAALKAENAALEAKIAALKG

4H317-AA = target: T8, 4H317-AA
T8 chain: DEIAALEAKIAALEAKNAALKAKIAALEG

4H678-AA = target: T9, 4H678-AA; conditions: mean of both orientations
T9 chain: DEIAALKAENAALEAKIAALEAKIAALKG

4H3921-AA = target: T10, 4H3921-AA; conditions: mean of both orientations
T10 chain: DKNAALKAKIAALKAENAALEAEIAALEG

4H454-AA = target: T11, 4H454-AA; conditions: mean of both orientations
T11 chain: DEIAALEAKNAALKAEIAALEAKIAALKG

4H3844-AA = target: T12, 4H3844-AA; conditions: mean of both orientations
T12 chain: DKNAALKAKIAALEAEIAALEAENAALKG

4H605-AA = target: T13, 4H605-AA; conditions: mean of both orientations
T13 chain: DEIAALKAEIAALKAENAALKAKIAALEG

4H335-AA = target: T14, 4H335-AA; conditions: mean of both orientations
T14 chain: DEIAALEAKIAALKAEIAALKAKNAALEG

4H3606-AA = target: T15, 4H3606-AA; conditions: mean of both orientations
T15 chain: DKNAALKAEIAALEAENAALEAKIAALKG

4H780-AA = target: T16, 4H780-AA; conditions: mean of both orientations
T16 chain: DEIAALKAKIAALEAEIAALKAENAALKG

4H881-AA = target: T17, 4H881-AA; conditions: mean of both orientations
T17 chain: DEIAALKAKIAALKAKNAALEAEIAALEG

4H993-AA = target: T18, 4H993-AA; conditions: mean of both orientations
T18 chain: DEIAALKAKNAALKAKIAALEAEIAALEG

4H3427-AA = target: T19, 4H3427-AA; conditions: mean of both orientations
T19 chain: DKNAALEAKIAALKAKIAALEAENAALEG

4H794-AA = target: T20, 4H794-AA; conditions: mean of both orientations
T20 chain: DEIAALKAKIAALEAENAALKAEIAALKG

4H566-AA = target: T21, 4H566-AA; conditions: mean of both orientations
T21 chain: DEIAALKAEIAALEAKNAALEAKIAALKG

4H3343-AA = target: T22, 4H3343-AA; conditions: mean of both orientations
T22 chain: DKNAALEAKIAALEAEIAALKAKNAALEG

4H384-AA = target: T23, 4H384-AA; conditions: mean of both orientations
T23 chain: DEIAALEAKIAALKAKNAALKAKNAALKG

4H3718-AA = target: T24, 4H3718-AA; conditions: mean of both orientations
T24 chain: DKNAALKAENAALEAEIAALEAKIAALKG

4H982-AA = target: T25, 4H982-AA; conditions: mean of both orientations
T25 chain: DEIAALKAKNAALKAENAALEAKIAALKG

4H3865-AA = target: T26, 4H3865-AA; conditions: mean of both orientations
T26 chain: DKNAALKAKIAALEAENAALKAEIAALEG

4H3697-AA = target: T27, 4H3697-AA; conditions: mean of both orientations
T27 chain: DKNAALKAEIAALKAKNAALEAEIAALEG

4H3631-AA = target: T28, 4H3631-AA
T28 chain: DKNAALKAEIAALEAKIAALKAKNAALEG

4H697-AA = target: T29, 4H697-AA; conditions: mean of both orientations
T29 chain: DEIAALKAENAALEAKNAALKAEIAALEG

APC9291-AA = target: T30, APC9291-AA
T30 chain: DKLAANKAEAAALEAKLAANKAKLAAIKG

APC9806-AA = target: T31, APC9806-AA; conditions: mean of both orientations
T31 chain: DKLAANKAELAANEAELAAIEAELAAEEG

4H971-AA = target: T32, 4H971-AA; conditions: mean of both orientations
T32 chain: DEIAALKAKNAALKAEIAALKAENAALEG

4H675-AA = target: T33, 4H675-AA; conditions: mean of both orientations
T33 chain: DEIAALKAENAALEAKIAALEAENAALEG

4H428-AA = target: T34, 4H428-AA; conditions: mean of both orientations
T34 chain: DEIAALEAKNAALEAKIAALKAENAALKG

4H478-AA = target: T35, 4H478-AA; conditions: mean of both orientations
T35 chain: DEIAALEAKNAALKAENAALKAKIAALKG

4H3939-AA = target: T36, 4H3939-AA; conditions: mean of both orientations
T36 chain: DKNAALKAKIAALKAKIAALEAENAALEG

4H497-AA = target: T37, 4H497-AA; conditions: mean of both orientations
T37 chain: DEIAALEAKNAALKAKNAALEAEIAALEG

4H3920-AA = target: T38, 4H3920-AA
T38 chain: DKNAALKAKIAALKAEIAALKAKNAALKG

4H656-AA = target: T39, 4H656-AA; conditions: mean of both orientations
T39 chain: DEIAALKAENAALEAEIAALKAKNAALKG

4H483-AA = target: T40, 4H483-AA
T40 chain: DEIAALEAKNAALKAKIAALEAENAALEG

4H63-AA = target: T41, 4H63-AA; conditions: mean of both orientations
T41 chain: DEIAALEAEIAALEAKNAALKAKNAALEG

interaction score (4H429-AA): -0.459
interaction score (4H3655-AA): -0.949
interaction score (4H3627-AA): -0.771
interaction score (4H906-AA): 0.51
interaction score (4H717-AA): -1.63
interaction score (4H48-AA): 0.228
interaction score (4H342-AA): 2.15
interaction score (4H317-AA): 1.28
interaction score (4H678-AA): 0.755
interaction score (4H3921-AA): 1.81
interaction score (4H454-AA): -1.04
interaction score (4H3844-AA): -0.686
interaction score (4H605-AA): -0.441
interaction score (4H335-AA): -0.361
interaction score (4H3606-AA): 2.23
interaction score (4H780-AA): -1.52
interaction score (4H881-AA): 1.38
interaction score (4H993-AA): -1.11
interaction score (4H3427-AA): 1.23
interaction score (4H794-AA): 0.104
interaction score (4H566-AA): 1.74
interaction score (4H3343-AA): -1.56
B1: 4H317-AA (peptide)
chain: DEIAALEAKIAALEAKNAALKAKIAALEG

interaction score (4H384-AA): -1.07
interaction score (4H3718-AA): 0.0628
interaction score (4H982-AA): -1.91
interaction score (4H3865-AA): -1.53
interaction score (4H3697-AA): -1.62
interaction score (4H3631-AA): 0.402
interaction score (4H697-AA): -1.8
B2: 4H3631-AA (peptide)
chain: DKNAALKAEIAALEAKIAALKAKNAALEG

interaction score (APC9291-AA): -1.78
interaction score (APC9806-AA): -1.78
B3: APC9291-AA (peptide)
chain: DKLAANKAEAAALEAKLAANKAKLAAIKG

More lines, now with the values behind:

B4: 4H3920-AA (peptide)
chain: DKNAALKAKIAALKAEIAALKAKNAALKG
interaction score (4H971-AA): -1.64
interaction score (4H675-AA): -1.22
interaction score (4H428-AA): -0.945
interaction score (4H478-AA): -1.71
interaction score (4H3939-AA): -0.87
interaction score (4H497-AA): -1.9
interaction score (4H3920-AA): -1.57
interaction score (4H656-AA): -1.01

B5: 4H483-AA (peptide)
chain: DEIAALEAKNAALKAKIAALEAENAALEG
interaction score (4H483-AA): -2.02
interaction score (4H63-AA): -1.11
